Data on five molecules can be found in article PMC8284805, “Mechanism underlying the DNA-binding preferences of the Vibrio cholerae and vibriophage VP882 VqmA quorum-sensing receptors”.

What is called stoichiometry N is the number of molecules, sites or subunits per partner or assembly.

The target of data set [1] is GST-DBDPhage (GST fused to the N-terminus of the VqmAPhage DNA-binding domain) (not stated | vibriophage VP882). Kind of data set: SEC; gel filtration of the purified proteins, UV280 traces (S3D Fig). For orientation: In gel filtration, larger molecules generally elute earlier.
Data set [2] concerns GST-DBDPhage (Vibriophage VP882). Kind of data set: EMSA. The following applies: EMSA: 25 nM DNA, 18.75-600 nM protein (dimer), 6% DNA retardation gel, SYBR Green; buffer, pH and temperature not given (cited protocol); EC50 values only in …. For orientation: In EMSA bound probe runs differently from free probe, usually more slowly.
Data set [3] concerns the target GST-DBDVc (GST fused to the N-terminus of the VqmAVc DNA-binding domain) (not stated | Vibrio cholerae). Nature of the data set: SEC; gel filtration of the purified proteins, UV280 traces (S3D Fig).
The target in data set [4] is T1, VqmAPhage (Vibriophage VP882, UniProt A2I306 1-235).
T1 sequence: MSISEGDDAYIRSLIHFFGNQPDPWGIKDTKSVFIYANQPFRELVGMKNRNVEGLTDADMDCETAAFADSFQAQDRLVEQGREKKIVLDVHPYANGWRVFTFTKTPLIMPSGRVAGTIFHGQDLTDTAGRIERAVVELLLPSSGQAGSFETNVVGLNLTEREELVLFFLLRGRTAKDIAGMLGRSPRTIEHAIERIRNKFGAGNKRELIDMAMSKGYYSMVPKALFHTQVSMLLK
Nature of the data set: EMSA; EMSA: 25 nM DNA, 18.75-600 nM protein (dimer), 6% DNA retardation gel, SYBR Green; buffer, pH and temperature not given (cited protocol); EC50 values only in S2A Fig. The following applies: protein: recombinant; chain copies: 2; blunt.

Data set [5] has as its target VqmAVc (Vibrio cholerae, UniProt A0A0F0AZW0 1-246). The data set is described as above. The following applies: protein: recombinant; chain copies: 2; blunt.
In data set [6] the target is T1, VqmAPhage. Kind of data set: EMSA; half as strong as PvqmR*; EMSA: 25 nM DNA, 18.75-600 nM protein (dimer), 6% DNA retardation gel, SYBR Green; buffer, pH and temperature not given (cited protocol); EC50 values only in S2A Fig. The note with it: protein: recombinant; chain copies: 2; blunt.

“GST-DBDPhage (GST fused to the N-terminus of the VqmAPhage DNA-binding domain)”: the stoichiometry N in data set [1] came to 2.
In data set [2], “GAATACACTCCTTGTAAGTGATTGTTATAAGGAGCTTTATTCTTGATGCATATAAGAAATACCGATAGGGGGAAAAATACCCTGATAAGCAGCTGCTAAAATTGATAAATGTCAATAAGCGAAGGGGATGATGC (double strand) [Pqtip]” displayed a binding signal (fold stronger than PvqmR) of 5.
In the case of “GST-DBDVc (GST fused to the N-terminus of the VqmAVc DNA-binding domain)”, the stoichiometry N in data set [3] stood at 2.

B1: PvqmR* (dsDNA)
DNA 1: TCCGAGTATTGCGCGAGCTGTAATGTTGACTCAAACAATTATGCATAAAGGGGGGAAAAATACCCTTTTTCATTTGTACCGCGTTCGGTAAAGTACAAAC
DNA 2: GTTTGTACTTTACCGAACGCGGTACAAATGAAAAAGGGTATTTTTCCCCCCTTTATGCATAATTGTTTGAGTCAACATTACAGCTCGCGCAATACTCGGA
For B1, the binding signal in data set [4] was about 2 fold stronger than Pqtip*.

B2: Pqtip* (dsDNA)
DNA 1: GTGATTGTTATAAGGAGCTTTATTCTTGATGCATATAAGAAATACCGATAGGGGGATTTCCCCCCTGATAAGCAGCTGCTAAAATTGATAAATGTCAATA
DNA 2: TATTGACATTTATCAATTTTAGCAGCTGCTTATCAGGGGGGAAATCCCCCTATCGGTATTTCTTATATGCATCAAGAATAAAGCTCCTTATAACAATCAC
As to B2, the binding result in data set [5] and in data set [6] was “binds” each time.
